The target in assay [1] is SARS-CoV-2 Omicron BA.2 spike receptor-binding domain (SARS-CoV-2 Omicron BA.2, strain). The assay is described as follows: BLI.
Assay [2] concerns the target SARS-CoV-2 Omicron BA.5 spike receptor-binding domain (SARS-CoV-2 Omicron BA.5, N440K | L452R | F486V). Kind of assay: BLI. (In general: BLI is a label-free optical method that tracks binding on a fibre tip over time.)

The values below come from article PMC10308935 (Journal of Virology, 2023).

B1: MO1 monoclonal antibody (recombinant human IgG) (antibody, V domains shown)
VH: EVQLVESGGGMVQPGRSLRLSCAASGFTFDDYAMHWVRQIPGKGLEWVSGISWNSGDIGYADSVKGRFTISRDNAKNSLHLQMNSLRAEDTALYYCAKDKTYDSPGYFLNSFDYWGQGTLVTVSS
VL: DIQMTQSPSSLSASVGDRVTITCRASQGISSYLVWYQQKPGKAPKFLIYAASTLQSGVPSRFSGSGSGTDFTLTISSLQPEDFATYYCQQLYSYPITFGQGTRLEIK
As for B1, the equilibrium dissociation constant (Kd) in assay [1] was 3.3 nM; in assay [2], 11 nM.

One may read the Kd as the concentration at which binding is half-saturated.
